Test results from paper PMC12362098, “Dimerization of Cdc13 is essential for dynamic DNA exchange on telomeric DNA” (The Journal of Biological Chemistry, 2025).
Residue numbers refer to the chain shown, from its start.

Columns and labels:
[1] = target: T1, Cdc13 WT (Saccharomyces cerevisiae, UniProt P32797 1-924); experiment: competition EMSA (DDE assay); EC50 for displacing 2 nM prebound IR800-Tel30G; 3.75 nM dimer; 30 C; value introduced 'as reported (9)', assay also run here; 25 mM HEPES pH 8.0, 50 mM NaOAc, 150 mM NaCl, 7.5 mM MgCl2 (1x DNA-binding buffer); DDE incubation 30 C, 8% native gel; mass photometry at room temperature after 30 C incubation; BLI buffer details not in material; conditions: protein: recombinant; chain copies: 2; label: 5' IRDye700
T1 sequence: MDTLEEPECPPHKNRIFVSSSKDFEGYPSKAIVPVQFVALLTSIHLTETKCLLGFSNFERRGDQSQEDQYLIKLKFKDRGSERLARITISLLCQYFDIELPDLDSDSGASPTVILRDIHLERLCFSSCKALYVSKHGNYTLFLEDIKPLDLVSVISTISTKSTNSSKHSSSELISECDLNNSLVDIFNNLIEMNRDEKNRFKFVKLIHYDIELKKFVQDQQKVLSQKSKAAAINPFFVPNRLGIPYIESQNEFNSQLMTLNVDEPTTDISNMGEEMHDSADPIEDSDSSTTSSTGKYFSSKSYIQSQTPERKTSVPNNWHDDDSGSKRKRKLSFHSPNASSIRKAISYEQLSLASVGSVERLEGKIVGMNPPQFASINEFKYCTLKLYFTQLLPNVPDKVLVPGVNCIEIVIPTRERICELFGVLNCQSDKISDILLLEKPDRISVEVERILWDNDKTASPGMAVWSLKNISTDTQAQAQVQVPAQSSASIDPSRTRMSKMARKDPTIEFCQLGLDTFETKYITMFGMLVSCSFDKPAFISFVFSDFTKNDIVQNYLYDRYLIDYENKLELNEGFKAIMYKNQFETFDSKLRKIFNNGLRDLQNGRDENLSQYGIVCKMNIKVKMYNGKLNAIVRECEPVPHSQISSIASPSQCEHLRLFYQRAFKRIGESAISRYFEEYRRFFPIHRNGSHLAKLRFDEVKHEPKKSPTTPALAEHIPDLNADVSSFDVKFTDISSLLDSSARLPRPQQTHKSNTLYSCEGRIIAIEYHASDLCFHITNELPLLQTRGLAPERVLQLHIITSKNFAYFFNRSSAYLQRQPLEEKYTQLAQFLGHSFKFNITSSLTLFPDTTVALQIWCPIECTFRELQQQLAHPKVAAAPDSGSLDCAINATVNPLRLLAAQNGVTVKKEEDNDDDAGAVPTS

[2] = target: T2, Cdc13-L91R (Saccharomyces cerevisiae, UniProt P32797 1-924, L91R); experiment: competition EMSA (DDE assay); EC50 for displacing 2 nM prebound IR800-Tel30G; 3.75 nM monomer; 30 C; 25 mM HEPES pH 8.0, 50 mM NaOAc, 150 mM NaCl, 7.5 mM MgCl2 (1x DNA-binding buffer); DDE incubation 30 C, 8% native gel; mass photometry at room temperature after 30 C incubation; BLI buffer details not in material; conditions: protein: recombinant; label: 5' IRDye700
T2 sequence: T1 sequence with L91R

[3] = target: T1, Cdc13 WT; experiment: mass photometry; one and two dimers per ssDNA; binding buffer; 25 mM HEPES pH 8.0, 50 mM NaOAc, 150 mM NaCl, 7.5 mM MgCl2 (1x DNA-binding buffer); DDE incubation 30 C, 8% native gel; mass photometry at room temperature after 30 C incubation; BLI buffer details not in material; conditions: protein: recombinant; chain copies: 2
[4] = target: T2, Cdc13-L91R; experiment: mass photometry; small population with two monomers per ssDNA; binding buffer; 25 mM HEPES pH 8.0, 50 mM NaOAc, 150 mM NaCl, 7.5 mM MgCl2 (1x DNA-binding buffer); DDE incubation 30 C, 8% native gel; mass photometry at room temperature after 30 C incubation; BLI buffer details not in material; conditions: protein: recombinant
[5] = target: the molecule itself; experiment: mass photometry; Cdc13 alone diluted in PBS, 11.25 nM protein, room temperature

## CGCCATGCTGATCCGTGTGGTGTGTGTGGG (ssDNA) [IR700-Tel30G]
[1]
  IC50: 0.89 nM
[2]
  IC50: 31.6 nM

## GTGTGGGTGTGGTGTGGGTGTGGTGTGGGTGTGTGGGTGTGGTGTGGGTG (ssDNA) [Tel50G]
[3]
  binding result: binds
[4]
  binding result: binds

B1: Cdc13 (wild type, recombinant) (natural protein, S. cerevisiae, UniProt P32797 1-924, looked up)
chain: T1 sequence
notes: called full-length WT Cdc13 in the text; The vector encodes a 5'-SUMO-His6 tag and a 3'-FLAG tag for purification; The monomer mass seen was ~105 kDa; also called WT Cdc13
[5]
  stoichiometry N: 2
